Test: yeast display, Sf9 membrane polyspecificity reagent, FACS + sequencing; frameworks hold sequencing errors
Outline: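 Genes from sorted yeast were amplified by colony PCR, read by MiSeq 2 × 250 sequencing and filtered on CDR length. These cells carried a synthetic nanobody library in Saccharomyces cerevisiae BJ5465 and were sorted by FACS into low and high (top ~1%) gates on anti-HA and streptavidin fluorescence. Polyreactivity is labelled according to the gate of origin.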

Row | Sequence | polyreactivity (PSR sort gate)
1 | QVQLVESGGGLVQAGGSLRLSCAASGITLYQYAMGWYRQAPGKERELVAAISWNGGTTYYADSVKGRFTISRDNAKNNVYLQMNSLKPEDTAVYYCAADGYPYGGPSYYYWGQGTQVTVSS | high polyreactivity
2 | QVQLVESGGGLVQAGGSLRLSCAASGSTFVPNAMGWYRQAPGKERELVAAISRSAGSTYYADSVKGRFTISRDNAKNTVYLQMNSLKPEDTAVYYCAAVSLTYIAYDYWGQGTQVTVSS | high polyreactivity
3 | QVHLVESGVGLVQAGGSLRLSCASSGSTFYAYAMGWYRQAPGKERELVAAIDSGGSTYYADSVKGRFTISRDNAKNTVYLPMNILKPEDSAVYYCAVRHRYTRAYWGRDYWGQGTKVTVSS | low polyreactivity
4 | QVQLVESGGGLVQAGGSLRLSCAASGLTFVRYAMGWYRQAPGKERELVAAISARGGSTYYADSVKGRFTISRDNAKNTVYLQMNSLKPEDTAVYYCNTVRVHGFPIDRIYDYWGQGTQVTVSS | high polyreactivity
5 | QVQLVESVGGLVQAGGSLLLSCAASGRTFTKYAMGWYRLAPGKEGELVAAISRSGTSTYYADSVKGRFTISRDNEKNTVYLQMNSLKPEDTAVYYCATVSAKYHSVHFGYWGQGTQVTVSS | high polyreactivity
6 | QVQLVESGGGLVQAGGSHRLSCAASGSTFAYYAMGWYRQAPGKERELVATISERGGTTYYADSVKGRFTLSRDNAKNTVYFQMNILKPEVTAVYYCAADHSGYWTYYYDYYYWGQGTQVNVSS | low polyreactivity
7 | QVQLVETGGGLVQAGGSLRLSCAASGSTFSRYPMGWYRQAPGKEWELVAAITGTGGRTYYADSVKGRFTISRDNEKNTVYLLMNSLKPEDTAVYYCAAQRWTVKYNYWGQGTQVTVSS | high polyreactivity
8 | QVQLVESGGGLVQAGGSLRLSCAASGSIFGANAMGWYRQAPAKEWELVAAITRGGRTNYADSVKGRFTISRDNAKISVYLQMNSLKPEDTAVYYCNAAWGTGRWAGYISGGDWGQGTHVTVSS | high polyreactivity
9 | QVQLVESGGGLVQAGGSLRLSCAASGSTFVGNAMGWYRQAPGKERELVAGITSSGTSTYYADSVKGRFTMSRDNAKNSVYLQMNRLKPEDTAVYYCATDDADESYGFELFDYWGLGTQVTVSS | low polyreactivity
10 | QVQLVESGGGLVQSRGSLRLSWAASGSTFTYNTMGWYRQAPGKERELVAAISSGGSTYYADSVKGRFTISRDNAKNTVFLQMNSLKPEDTAVYYCAATAQKDSRYGSRYYYWGQGTQVTVSS | high polyreactivity
11 | QVQLVESGGGLVQAGGSLRLSCAASGIYAYVMGWYRPAPGKERELVAAISGTGGRTYYADSVKGRFTISRDNAKNTVYLQMNSLKPEDTAVYYCAARGIYQPKTFDYWGQGTQVTVSS | high polyreactivity
12 | QVQLVESGGGLVQAGGSLRLSCAASGRIFYSNAMGWYRQAPGKERELVATISTGGSTYAESVKGRFTISRDNAKNTVYLQLISLTPEESAVYYCAVDEWRWRVGAVAYYYWGQGTQVTVSS | low polyreactivity
13 | QVQLVESGGGLVQAGGSLRLSCAASGSILGYYVMGWYRQAPGKERELVAVISSDGSTYYADSVKGRFTISRDNAKNTVYLQMNSLKPEDTAVYYCNADYYVEYDYWGQGTQVTVSS | low polyreactivity
14 | QVQLVESGGGLVQAGGSLRLSFAASGRIFLRYAMVWYRHAPGKERELVAAISSRGGRTYYADSVKGRFTISRDNAKNTVYLQMNSLKPEDTAVYYCAAEGYYVTPFDYWGQGTQVTVSS | high polyreactivity
15 | QVQLVESGGGLVQAGGSLRLSCAASGRTFGHYAMGWYRQAPGKERELVAAITWTGGRTYYADSVKGRFTISRDNAKNTVYLQMNSLNPEVTAVYYCNTDRSFYYPAEYDYDYWGQGTQVTVSS | low polyreactivity
16 | QVQLVESGGGLVQAGGSLRLSCAASGFILYVNAMGWYRQAPGKERELVAGITSSGTSTYADSVKGRFTISRDNAKNTVYLQMNSLKPEDTAVYYCAALRRPYGARDYDYWGQGTQVTVSS | low polyreactivity

Row | Sequence | polyreactivity (PSR sort gate)
17 | QVQLVESGGGLVQAGGSLRLSCAASGSTFSIYAMGWSRQAPGKERELVAAITGTVGSTYYADSVKGRFTISRDNAKNTVYLQMNSLNPEDTAVYYCAARQVNYDYDYWGQGTQVTVSS | low polyreactivity
18 | QVQLVDSGGGLVQAGGSLRLSCSASRSNFVYNAIGWYRKAPWKERELVTGISGGGGTNYADSVKGRFTISRDNEKNTVYLQMNSLKPEDTAVYYCAAEQNYIEFDYWGQGTQVTVSS | low polyreactivity
19 | QVQLVESGGGLVQAGGSLRLSCAASGSIISYNAMGWYRQAPGKERELVAGIDLGDGTTYYADSVKGRFTISRDNAKNTVYLQMNSLKPDDTAVYYCNADIQIRPYGYAGTSTDEGLGYWGQGTQVTVSS | low polyreactivity
20 | QVQLVESGGGLVQAGGSLRLSCAASGRIFGPYAMGWYRHAPGKERELVAAISSSGSTTYYADSVKGRFTISRDNAKNTVYLQMNSLKPEDTAVYYCAKPSSRDSPYDYWGQGTQVTVSS | low polyreactivity
21 | QVQLVESGGGLVQAGGSLRLSCAASGSTFLFYDMGWYRHAAGKERELVAAIRWSGGSTYADSVKGRFTISRDNAKNTVYLQMNSLKPVDTAVYYCATTYRPTFRRHYNYWGQGTQVTVSS | low polyreactivity
22 | QVQLVESGGGLVQAGGILRLSCAASGLIFANNAMGWYRQAPGKERELVAAITGGGDGTYYADYVKGRFTISRDNAKNNVYFQMNSLKPEDTAVYYCAADYKYLGSEYCYWGQGTQVTVSS | low polyreactivity
23 | QVQLVESGGGLVQAGGSLRLSCAASGSIFSYYAMGWYRQAPGKERELVASITYSGGSTYYADSVKGRFTISRDNAKNTVYLQMNSLKPEDTAVYYCAAPLAYEGDYWGQGTQVTVSS | low polyreactivity
24 | QVQLVESVGALVQAGGSLRLSCAASGSIFIPYAMGWYRQAPGKEWEFVATITFGAASTYYADSVKGRFTISRDNAKNTVYLQMNSLKPEDTAVYYCNAEGYVYPYYREGDYWGQGTQVTVSS | low polyreactivity
25 | QVQLVESGGGLVQAGGSLRLSCAASGSTFTGYTMGWYRQAPGKEREFVAAISSRGGSTYYADSVKGRFTISRDNAKNTVFLQMNSLKPEETAVYYCAAKVWARVDGRQFRMEYWGQGTQVTVSS | high polyreactivity
26 | QVQLVESGGGLVQAGGSLRLSCAASGRIVANAMGWYRQAPGKERELVAAISWSGGRTFYADSVKGRFTISRDNAKNTVYLQMNSLKPEDSAVYYCNARGPVYARYDYCGQGTQVTVSS | low polyreactivity
27 | QVQLVESGGGLVQAGGSLRLSCAASGSISHLYTMGCYRQSPGKERELVAAIRYSGGRTDYADSVKGRFTISRDNAKNTVYLQMNSLKPEDTAVYYCAAGRSFRGSYWYEYWGQGTQVTVSS | high polyreactivity
28 | QVQLGESGGGLVQAGGSLRLSCAASGRIFSYYAMGWYRQAPGKERELVATIDRSGDPTSYADSVKGRFTISRDNAKNTVYLQMNSLKPEDTAVYYCAATSKRARYDSWGHGTQVTVSS | high polyreactivity
29 | QVQLVESGGGLVQAGGSLRLSCAASVFTIPPYAMGWYRRAPGKERELVARITWSGDRTYYADSVKGRFTISRDNAKNTFYLQINSLKPEDTAVYYCADDSAQYYEMDYWGQGTQVTVSS | high polyreactivity
30 | QVQLVESGGGLVQAGGSLRLSCAASGGTFERNAMGWYRQAPGKERELVAAITGSGGRTYYADSVKGRFTISRDNAKNTVYLHMNSLKPEDTAVYYCAAVPWWKYNYWGQGTQVTVSS | high polyreactivity
31 | QVQLVESGGGLVQAGGSLRLSCAASGFIVDYYAMGWYREAPGKERELVAAIDDSAGSTYYADSVKGRFTISRDNAKNTVYLQMNSLKPEDTAVYYCAADIYVEYDYWGQGTQVTVSS | low polyreactivity
32 | QVQLVESGGGLVQAGGSLRLSCAASGRIFHYNAMGWYRQAPGKERELVARITWTGGSTYYADSVKGRFTISRDNAKNTVYLQMNSLKPEDNAVYYCAAKWSYTKGRYYYWGQGTQVTVSS | high polyreactivity
